# Measured values published in the nanobody polyreactivity screen of Harvey et al. (2022).
# Assay: yeast display, Sf9 membrane polyspecificity reagent, FACS + sequencing; frameworks hold sequencing errors
# Procedure, shortened: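 Using colony PCR, genes from sorted yeast display clones were amplified, then sequenced on MiSeq at 2 × 250 and filtered by CDR length. The clones had been stained with 10% biotinylated, detergent-solubilized Sf9 membrane reagent for 1 hour at 4 °C and sorted by FACS into low and high (top ~1%) gates on anti-HA and streptavidin fluorescence. Polyreactivity labels come from the gate of origin.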
row,Sequence,polyreactivity (PSR sort gate)
1,QVQLVESGGGLVQAGGSLRLSCAASGRIFGDYAMGWYRQAPGKERELVADITWSGGSTYYADSVKGRFTISRDNAKNTVYLQMNSLKPEDTAVYYCNADVWFYYTFDYWGQGTQVTVSS,low polyreactivity
2,QVQLVESGGGLVQAGGSLRLSCAASGSIFGFYAMGWYRQAPGKERELVAAITFSGGSTDYADSVKGRFTISRDNAKNTVYLQMNSLKPEDTAVYYCAARGYAIYSYWYYEPYDYWGQGTQVTVSS,high polyreactivity
3,QVQLVESGGGLVQAGGSLRLSCAACGRTFFPYAIGWYRQAPGKERELVAAITTGDITNYADSVKGRFTISRDNAKNTVYLQMNSLKPEDTAVNYCAARGYASWSYGGYPLKLDYWGQGTQVTVSS,low polyreactivity
4,QVQLVESGGGLVQAGGSLRLSCAASGRIFAKYAMGWYRQAPGKERELVAAISWGGGSTYYADSVKGRFTISRDNAKNTVYLQMNSLKPEDTAVYYCARRFKYGSTAWRFYYWGQGTQVTVSS,high polyreactivity
5,QVQLVESGGGLVQAGGSLRLSCAASGLIFRYNTMGWYRQAPGKERELVAAITSSGGSTYYADSVKGRFTISRDNAKNTVYLQMNSLKPEDTAVYYCAKRSFYFSDYDYWGQGTQVTVSS,high polyreactivity
6,QVQLVESGGGLVQAGGSLRLSCAASGSTFYFYVMGWYRQAPGKERELVAAITWSGGRTSYADSVKGRFTISRDNAKNTVYLQMNSLKPEDTAVYYCAKDLQNSSHPSRYDYWGQGTQVTVSS,low polyreactivity
7,QVQLVESGGGLVQAGGSLRLSCAASGFTFPYYAMGWYRQAPGTERELVASNSRSGSTNYADSVKGRFTISRDNAKNTVYLQMNSLKPEDTAVYYCAAQLYSRGGYWGHGTQVTVSS,high polyreactivity
8,QVQLVESGGGLVQAGGSLRLSCAASGRTFRRYVMGWYRQAPGKERELVAAIRWTGGSTYYADSVKGRFTISRDNAKNTVYLQMNSLKPEDTAVYYCAASSYIGYGYLGQGTQVTVSS,high polyreactivity
9,QVQLVESGGGLVQAGGSLRLSCAASGSIFAYYVMGWYRPAPGKERELVAAITRAGSTYYADSVKGRFTISRDNGKNTVYLQMNSLKPEVSAVYYCDARVGYYFRPESYYWGQGTKVTVSS,high polyreactivity
10,QVQLVESGGGLVQAGGSLRLSSAASGRTFSAYAMGWYRQAPGKERELVARITSVDSTNYADSVKGRFTISRDNAKNTVYLQMNSLKPEDTAVYYCNVVNEHQSDFVVPFDYNHWGQGTQVTVSS,low polyreactivity
11,QVQLVESGGGLVQAGGSLRLSCAASGYTFSRNAMGWYRQAPGKERELVAAITGSGGSTYYADSVKGRFTISRDNAKNTVYLQMNSLKPEDTAVYYCATEVKRGYVGFDYWGQGTQVTVSS,low polyreactivity
12,QVQLVESGGGLVQAGGSLRLSCAASGSTSQYNAMGWYRQAPGKERELVAAISWSGTSTYYADSVKGRFTISRDNAKNTVYLQMNSLKPEDTAVYYCAADYIFDYDYWGQGTQVTVSS,low polyreactivity
13,QVQLVESGGGLVQAGGSLRLSCAASGRTFGNYVMGWYRQAPGKERELVAAIRSGTNTYYADSVKGRFTISRDNAKNTVYLQMNSLKPEDTAVYYCAAARYTKFDYWGQGTQVTVSS,high polyreactivity
14,QVQLVESGGGLVQAGGSLRLSCAASGSIFNYYAMGWYRQAPGKERELVAAITYGGASTYYADSVKGRFTISRDNAKNTVYLQMNSLKPEDTAVYYCAADSFTRWVFYRSTVRGFGYWGQGTQVTVSS,high polyreactivity
15,QVQLQERGGGLVQAGGSLRLSCAASRIIYADGFMGLYRQAPGKEREFVATITGGGTSNYADSVKGLFTISRDNAKNTVYLQMNSQKPEDTAVYYCAVYFAWTIGFTYWGQGTQVTVSS,high polyreactivity
16,QVQLVESGGGLVQAGGSLRLSCAASGRTFYYYAMGWYIPAPGKERELVARISYSGSNTYYADSVKGRFTISRDTAKNTVYLQMNSLKREVTAGYYCAAGYLVWRDSATLDYWGQGTQVTVSS,high polyreactivity
17,QVQLVESGGGLVQAGGSLRLSCAASGFIFKHYAMGWYRQAPGKERELVAAISRSTGRTNYADSVKGRFTISRDNAKNTDYLQMNSLKPEDTAVYYCAAYRYLRYDYWGQGTQVTVSS,high polyreactivity
18,QVQLVESGGGLVQAGGSLRLSCAASGFTFYYYAMGWYRQSPGKERELVAAISWNGGRTYYADSVKGRFTISRDTAKNNVYLQMNSLKPEDTAVYYCDTGYPIDLGREFDYWGQGIQVTVSS,high polyreactivity
19,QVQLVESGGGLVQAGGSLRLSCAASGSTLWVYAMGSYRQAPGKERELVAAITQSTGDTHYADSVKGRFTISRDNAKNTVYLQMNSLKPEDTAVYYCAADSYLSVYDPYGYWGQGTQVTVSS,low polyreactivity
20,QVQLVESGGGLVQAGGSLRLSCADSGITFYEFGMGWYRQAPGKERELVAAITTDGRTNYADSVKGRFTISRDNATNTVYLQMNILKPEDTAVYYCAVVHYFWGFYSVDYWGQGTQETVSS,high polyreactivity
21,QVQLVESGGCLDQAGGSLRLSCAASGRIFNSNTMGWYRQAPGKERELVAAITYSGGSTYYADSVKGRFTISRDNAKNTVYLQMNSLKPEDTAVYYCAADFWEYDGPWYANDYYSWGQGTQVTVSS,low polyreactivity
22,QVQLVESGGGLVQAGGSLRLSCAASGSIFYVNGMGWYRQAPGKERELVARITLSGTSTYYADSVKGRFTISRDNAKNTVYLQRNSLKPEDPAVYYCAAPYFTYGQDEDEYWGQGTQGTVSS,low polyreactivity

row,Sequence,polyreactivity (PSR sort gate)
1,QVQLVESGGGLVQAGGSLRLSCAASGSIFWVYAMGWYRQAPGKERELVAAISNRGGSTYYSDSVKGRFTISRDNAKITVYLQMNSLKPEDTAVYYCAAVVAHHYYWGQGTQVTVSS,high polyreactivity
2,QVQLVESGGGLVQAGGSLRLSCAASGRIFLGNVMGWYRQAPGKERELVAAISWSGGSTYADSVKGRFTISRDNAKNTVYLQMNSLKPEDTAVYYCNAELGSYDKDYDYWGQGTQVTVSS,low polyreactivity
3,QVQLVESGGGLVQAGGSLRLSCAASGFIFGGYAMGWYRQAPGKERELVAAISSSGGSTYYADSVKGRFTISRDNAKNTVYLQMNSLKPEDTAVYYCAKVGWSRRYYYWGQGTQVTVSS,high polyreactivity
4,QVQLVESGGGLVQAGGSLRLSCAASGITFIRNAMGWYRQAPGKERELVAAISYRGGSTYYADSVKGRFTISRDNAKNTVYLQMNSLKPEDTAVYYCAAARKLDATTYYKFDYWGQGTQVTVSS,high polyreactivity
5,QVQLVESGGGLVQAGGRLRLSCAASGSTFKRYVMRLYRQAPGKERELVAAITWSGTRTYYADSVKGRFTISRDNAKNTVYLQMNSLKPEDTAVYYSAAVADRYPYSGYNYYSWGQGTQVTVSS,high polyreactivity
6,QVQLVESGGGLVQAGGSLRLSCAASGITFSQYAMGWYRQAPGTERELVAAISGSGGDTYYADSVKGRFTISRDNAKNTVYLQMNSLKPEDTAVYYCNADYESVYYEDYDYWGQGTQVTVSS,low polyreactivity
7,QVQLVESGGGLVQAGGSLRLSCAASGSTFAINARGWYRQAPGKERELVAAISSSGSTNYADSVKGRFTISRDNAKITVYLQMNSLKPEDTAVYYCAATGYRVYGFEFGYWGQGTQVTVSS,low polyreactivity
8,QVQLVESGGGLVQAGGSLRLSCAASGSTFRRYAMGWNRKAPGKERELVAAISGRGGSTSYADSVTGRFTISRDNAKNTVFLQMNSLKPEETAVYYCAADDKYFYPGNGYWGQGTQVTVSS,high polyreactivity
9,QVQLVESGGGLVQAGGSLRLSCAASGRTFQKYVMGWYRQEPGKEREIVAAISGGGGRTYYADSVKGRFTISRDNAKNTVYLQMNSLKPEDTAVYYCAARGLGKELDRFYYWGQGTQVTVSS,high polyreactivity
10,QVHLVESGGGLVQAGGSLLLSCAASGIIFSYYAMGWYRQAPGKERELVAAISRSGVRPYYADSVKGRFTISRDNAKHTVYLQMYSLKPEDTAVYYCNAEFSPYPYDYWGQGTQVSVSS,high polyreactivity
11,QVHLVESGGGLVQAGGSLRLSCAASGFTFYSYAMGWYRQAPGKERELVANITIGGSTYADSVKGRFTISRDNAKNTVYLQMNSLKPEDTAVYYCARGYRVVGDPLYGDYDYWGQGTQVTVSS,low polyreactivity
12,QVQLVESGGGLVQAGGSLRLSCAASGRTFYDYAMGWYRQAPGKERELVAAISSRGGRTYYADSVKGRFTISRDNAKNTVYLQMNSLKPEDSAVYYCAKVVDYNDRDSWGQGTQVTVSS,high polyreactivity
13,QVHLVESGGGLVQAGGSLRLSCAASGIIFYANVMGWYRQAPGKERELVAGISRNGGRTYYADSVKGRFTFSRDNAKNTVYLQMICLKPEDTAVYYCAARGSYTSIFDYWGQGTQVTVSS,high polyreactivity
14,QAQLQESAGSLVQAGGGLRLSCAASGYISVGSVKGWYRQAPSKERELVASIDQGANTNYADSVKGRFTISRDNAKNNVYLQMNSLIPEDTAVYYCATETTYILNYWGQGTQVTVSS,low polyreactivity
15,QVQLVESGGGLVQAGGSLRLSCAASGRIFRSYAMGWYRQAPGKERELFAAISYSGGSTYYADSVKGRFTISRDNAKNTVYLQMNSLKPEDTAVYYCAALPGERKYIYYGYDYWGQGTQVTVSS,high polyreactivity
16,QVQLVESGGGLVQAGGSLRLSCAASGSTFYYYAMGWYRQAPGKERELVAAINDSGDRTYYADSVKGRFTISRDNAKNNVYLQMNSLKPEDTAVYYCAADLVSLDPEYDYWGQGTQVTVSS,low polyreactivity
17,RVQLQESGGGLVQAGGSLRLSCAASGTIFIRGDMGWYRQAPGKEREFVATIETGSNTYYADSEKGRFTISRDNAKNAVYLEMNCLKPGDTAVYYCVVDYQLSGRLRYWGQGTQVTLSS,low polyreactivity
18,QVQLVESGGGLVQAGGSLRLSCAASGSIFAYYAMGWYRQAPGKERELVAGIRISGGRTYYADSVKGRFTISRDTAKNTVYLQMNSLKPEDTAVYYCNARWRGFRTGAGDYWGQGTQVTVSS,high polyreactivity
19,QVQLVESGGGLVQAGGSLRLSCAASGRILRYNAMGWYRQAPGKERELVASISGNGGSTYYADSVKGRFTISRDNAKYTVYLQMNSLKPEDTAVYYWGQGTQVTVSS,low polyreactivity
20,QVQLVESGGGLVQAGGSLRLSCAASGFIFRGNAMGWYRQAPGKERELVASISRTGDTTYYADSVKGRFTISRDNAKNTVYLQMNSLKPEDTAVYYCARRSRVGYPLDSWGQGTQVTVSS,high polyreactivity
21,QVQLVESGGGLVQAGGSLRLSCAASGSIFFAYAMGWYRQAPGKERELVAAITSGVSTNYADSVKGRFTISRDNAKNTVYLQMNSLKPEDTAVYYCNADFDYGFDAGLAVQVVIHDYWGQGTQVTVSS,low polyreactivity
